The values below come from PMC7785629.

Residue numbers refer to the chain shown, from its start. In names and notes the source's numbering stands.

As usually defined, the Km is the substrate concentration at which the rate is half of its maximum. In general, Vmax refers to the top rate of the reaction or transport when substrate is in excess.

Substrate in data set [1]: Nc1ncnc2c1ncn2[C@@H]1O[C@H](COP(=O)(O)OP(=O)(O)OP(=O)(O)O)[C@@H](O)[C@H]1O
As to the kind of experiment: purified protein. It counts as biochemical, Homo sapiens. To be noted: Mg2+ nucleotide binding domain.

Substrate in data set [2]: Nc1ncnc2c1ncn2[C@@H]1O[C@H](COP(=O)(O)OP(=O)(O)OP(=O)(O)O)[C@@H](O)[C@H]1O
As to the kind of experiment: Michaelis-Menten ATPase kinetics. In kind it is biochemical, Homo sapiens. The following applies: Mg2+ nucleotide binding domain.

B1: ABCB7 (Homo sapiens) (protein)
chain: HSAILIRPLVSVSGSGPQWRPHQLGALGTARAYQIPESLKSITWQRLGKGNSGQFLDAAKALQVWPLIEKRTCWHGHAGGGLHTDPKEGLKDVDTRKIIKAMLSYVWPKDRPDLRARVAISLGFLGGAKAMNIVVPFMFKYAVDSLNQMSGNMLNLSDAPNTVATMATAVLIGYGVSRAGAAFFNEVRNAVFGKVAQNSIRRIAKNVFLHLHNLDLGFHLSRQTGALSKAIDRGTRGISFVLSALVFNLLPIMFEVMLVSGVLYYKCGAQFALVTLGTLGTYTAFTVAVTRWRTRFRIEMNKADNDAGNAAIDSLLNYETVKYFNNERYEAQRYDGFLKTYETASLKSTSTLAMLNFGQSAIFSVGLTAIMVLASQGIVAGTLTVGDLVMVNGLLFQLSLPLNFLGTVYRETRQALIDMNTLFTLLKVDTQIKDKVMASPLQITPQTATVAFDNVHFEYIEGQKVLSGISFEVPAGKKVAIVGGSGSGKSTIVRLLFRFYEPQKGSIYLAGQNIQDVSLESLRRAVGVVPQDAVLFHNTIYYNLLYGNISASPEEVYAVAKLAGLHDAILRMPHGYDTQVGERGLKLSGGEKQRVAIARAILKDPPVILYDEATSSLDSITEETILGAMKDVVKHRTSIFIAHRLSTVVDADEIIVLDQGKVAERGTHHGLLANPHSIYSEMWHTQSSRVQNHDNPKWEAKKENISKEEERKKLQEEIVNSVKGCGNCSC
Regarding B1, in data set [1], the Km came to 5300 ± 1000 µM and the Vmax came out at 0.58 µM/min.

B2: ABCB7 (Homo sapiens; E433K) (protein)
chain: B1 chain with E411K
Take B2: in data set [2], the Michaelis constant (Km) is 490 ± 110 µM and the Vmax came to 0.37 µM/min.

B3: ABCB7 (Homo sapiens; E433Q) (protein)
chain: B1 chain with E411Q
In the case of B3, in data set [2], the Km turned out to be 710 ± 300 µM and the Vmax came out at 0.28 µM/min.

B4: ABCB7 (Homo sapiens; E433D) (protein)
chain: B1 chain with E411D
For B4, in data set [2], the Km worked out at 850 ± 280 µM and the Vmax was 0.35 µM/min.
